The source of these data is US20050032146A1 (published 2005).

In data set [1] the target is T1, tssk 2 fused to the GAL4 DNA binding domain (DNA-BD) (human, UniProt P04386 1-147 (Saccharomyces cerevisiae entry), limits assumed).
T1 construct: Yeast two-hybrid bait expressed in the AH109 reporter strain; also called bait gene (tssk 2); fusion protein of tssk 2 with the DNA-BD
Briefly: yeast two-hybrid, growth in His-free medium (AH109). As for the experimental part:
In this experiment, a bait gene (tssk 2) was first transformed into the reporter strain as a fusion to the GAL4 DNA binding domain (DNA-BD). A second plasmid that expressed tsks as fusion to the GAL 4 activation domain (AD) was also introduced into the AH109 reporter strain. Western blots were performed to confirm expression of fusion proteins in yeast. […] This interaction was used as a positive control. […] Neither GAL-AD alone nor the fusion proteins between GAL-AD and TSKS or GAL-AD and SV40 Large T antigen had the ability to activate transcription of the His gene.

Data set [2] has as its target T2, tsks fused to the GAL 4 activation domain (AD).
T2 chain: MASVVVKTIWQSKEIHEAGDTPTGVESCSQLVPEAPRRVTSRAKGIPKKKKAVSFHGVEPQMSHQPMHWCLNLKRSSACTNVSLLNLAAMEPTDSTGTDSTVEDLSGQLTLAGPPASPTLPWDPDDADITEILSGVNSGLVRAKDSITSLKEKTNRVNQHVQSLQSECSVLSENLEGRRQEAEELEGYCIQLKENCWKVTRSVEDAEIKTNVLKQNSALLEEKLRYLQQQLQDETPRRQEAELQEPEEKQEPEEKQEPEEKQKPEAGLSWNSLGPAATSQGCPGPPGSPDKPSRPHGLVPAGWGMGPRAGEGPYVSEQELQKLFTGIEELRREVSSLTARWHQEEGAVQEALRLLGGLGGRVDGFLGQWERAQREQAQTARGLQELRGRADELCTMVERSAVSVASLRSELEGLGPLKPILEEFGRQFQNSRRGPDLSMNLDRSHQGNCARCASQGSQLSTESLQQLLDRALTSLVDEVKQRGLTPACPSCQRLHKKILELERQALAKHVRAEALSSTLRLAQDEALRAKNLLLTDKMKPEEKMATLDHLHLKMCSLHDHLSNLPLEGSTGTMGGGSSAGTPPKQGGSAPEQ

B1: GAL 4 activation domain alone (GAL-AD plasmid) (other, UniProt P04386 768-881, looked up)
chain: ANFNQSGNIADSSLSFTFTNSSNGPNLITTQTNSQALSQPIASSNVHDNFMNNEITASKIDDGNNSKPLSPGWTDQTAYNAFGITTGMFNTTTMDDVYNYLFDDEDTPPNPKKE
notes: Negative-control prey without an insert; also called GAL-AD alone
Take B1: the binding result in data set [1] is “no binding”.

B2: tssk 2 fused to the GAL4 DNA binding domain (DNA-BD) (protein)
chain: MKLLSSIEQACDICRLKKLKCSKEKPKCAKCLKNNWECRYSPKTKRSPLTRAHLTEVESRLERLEQLFLLIFPREDLDMILKMDSLQDIKALLTGLFVQDNVNKDAVTDRLASVETDMPLTLRQHRISATSSSEESSNKGQRQLTVSMDDATVLRKKGYIVGINLGKGSYAKVKSAYSERLKFNVAVKIIDRKKTPTDFVERFLPREMDILATVNHGSIIKTYEIFETSDGRIYIIMELGVQGDLLEFIKCQGALHEDVARKMFRQLSSAVKYCHDLDIVHRDLKCENLLLDKDFNIKLSDFGFSKRCLRDSNGRIILSKTFCGSAAYAAPEVLQSIPYQPKVYDIWSLGVILYIMVCGSMPYDDSDIRKMLRIQKEHRVDFPRSKNLTCECKDLIYRMLQPDVSQRLHIDEILSHSWLQPPKPKATSSASFKREGEGKYRAECKLDTKTGLRPDHRPDHKLGAKTQHRLLVVPENENRMEDRLAETSRAKDHHISGAEVGKAST
On to B2, for which the “transcription of the Histidine (HIS) gene; growth of yeast in His-free medium” value in data set [2] was “promote transcription of the Histidine (HIS) gene and allow for the growth of yeast in His-free medium”.
